Two molecules from patent US20130184211A1 (NEW YORK UNIVERSITY, published 2013) can be followed below.

Broadly, the Kd is the free concentration of one partner at which half of the binding sites on the other are occupied at equilibrium, for simple one-to-one binding. Low readings indicate a tighter complex, high ones a looser complex.

Assay [1] has as its target T1, ectodomain of murine Klotho (A35 to K982) with C-terminal FLAG tag (murine, UniProt O35082 35-982).
T1 construct: range 35-982; Purified from culture media of HEK293 cells; also called Klotho ectodomain; not shown: C-terminal FLAG tag
T1 sequence (looked up): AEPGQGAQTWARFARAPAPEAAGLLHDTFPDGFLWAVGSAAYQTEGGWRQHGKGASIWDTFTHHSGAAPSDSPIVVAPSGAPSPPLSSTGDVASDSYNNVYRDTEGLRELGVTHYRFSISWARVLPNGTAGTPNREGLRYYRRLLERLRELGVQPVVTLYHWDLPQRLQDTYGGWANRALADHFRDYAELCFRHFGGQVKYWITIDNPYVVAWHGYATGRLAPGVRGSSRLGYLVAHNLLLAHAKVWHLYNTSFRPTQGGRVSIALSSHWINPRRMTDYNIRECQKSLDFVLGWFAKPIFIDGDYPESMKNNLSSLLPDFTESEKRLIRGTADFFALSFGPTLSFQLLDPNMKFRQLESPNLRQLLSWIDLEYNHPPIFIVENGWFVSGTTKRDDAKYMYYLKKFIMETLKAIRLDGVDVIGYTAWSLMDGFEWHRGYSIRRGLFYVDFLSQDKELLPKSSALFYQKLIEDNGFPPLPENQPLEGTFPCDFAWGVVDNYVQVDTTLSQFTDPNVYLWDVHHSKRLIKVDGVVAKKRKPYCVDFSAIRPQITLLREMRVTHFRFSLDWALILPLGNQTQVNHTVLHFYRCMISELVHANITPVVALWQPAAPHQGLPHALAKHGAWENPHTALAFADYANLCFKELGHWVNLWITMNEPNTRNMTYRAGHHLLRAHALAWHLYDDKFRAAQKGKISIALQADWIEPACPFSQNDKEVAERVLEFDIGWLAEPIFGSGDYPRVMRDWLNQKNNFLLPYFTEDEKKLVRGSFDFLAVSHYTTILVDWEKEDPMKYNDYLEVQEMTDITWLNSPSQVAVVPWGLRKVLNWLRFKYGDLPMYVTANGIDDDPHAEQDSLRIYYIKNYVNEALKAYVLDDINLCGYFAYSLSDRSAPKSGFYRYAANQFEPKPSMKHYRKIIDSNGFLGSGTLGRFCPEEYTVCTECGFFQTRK
Nature of the assay: SPR; Klotho ectodomain immobilized, increasing FGFR1c ectodomain injected; fitted saturation binding curve. The protocol:
Proteins were immobilized by amine coupling on flow channels of research grade CMS chips (Biacore AB). Proteins were injected over a CMS chip at a flow rate of 50 μl min⁻¹, and at the end of each protein injection (180 s), HBS-EP buffer (50 μl min⁻¹) was flowed over the chip to monitor dissociation for 180 s. The chip surface was then regenerated by injecting 50 μl of 2.0 M NaCl in 10 mM sodium acetate, pH 4.5. […] For each protein injection over a Klotho chip, the nonspecific responses from the β-glucuronidase control flow channel were subtracted from the responses recorded for the Klotho flow channel. Similarly, for each protein injection over a FGF chip, the nonspecific responses from the FHF1B control flow channel were subtracted from the responses recorded for the FGF flow channel. Each set of experiments was repeated at least three times, and for each experiment, at least two protein injections were repeated two to five times to monitor chip performance and to verify reproducibility of the binding responses.
The size-exclusion data showing that Klotho and FGFR1c ectodomains form a stable binary complex (FIG. 1B) indicate that Klotho must harbor a high affinity binding site for FGFR1c. To further confirm this, surface plasmon resonance (SPR) spectroscopy was used to determine the dissociation constant of the FGFR1c-Klotho interaction. […]
(Surface plasmon resonance follows binding to a sensor surface in real time, without labels.)

The target of assay [2] is T2, 1:1 binary complex of the ectodomains of FGFR1c and Klotho (human; murine, UniProt O35082 35-982).
T2 construct: range 35-982; also called FGFR1c-Klotho complex; binary FGFR1c-Klotho complex; not shown: C-terminal FLAG tag
T2 sequence 1: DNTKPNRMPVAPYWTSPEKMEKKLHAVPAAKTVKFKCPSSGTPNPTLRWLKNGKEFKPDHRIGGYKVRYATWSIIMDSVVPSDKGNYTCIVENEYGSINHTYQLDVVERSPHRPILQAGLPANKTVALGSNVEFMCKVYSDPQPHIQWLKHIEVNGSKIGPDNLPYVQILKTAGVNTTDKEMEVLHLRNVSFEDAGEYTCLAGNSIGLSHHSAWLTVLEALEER
T2 sequence 2: T1 sequence (looked up)
The assay can be described thus: SPR competition dose-response: FGF23^28-251 mixed with a fixed concentration of FGFR1c-Klotho, immobilized FGF23^28-251 as competitor; averaged data of two to three experiments. The source says:
For each protein injection over a Klotho chip, the nonspecific responses from the β-glucuronidase control flow channel were subtracted from the responses recorded for the Klotho flow channel. Similarly, for each protein injection over a FGF chip, the nonspecific responses from the FHF1B control flow channel were subtracted from the responses recorded for the FGF flow channel. Each set of experiments was repeated at least three times, and for each experiment, at least two protein injections were repeated two to five times to monitor chip performance and to verify reproducibility of the binding responses.
To examine whether the C-terminal tail of FGF23 can compete with full-length FGF23 for binding to the binary FGFR1c-Klotho complex, two assay formats were employed. In one assay, FGF23²⁸⁻²⁵¹ was immobilized on a chip (˜16-53 fmole/mm² of flow channel). Increasing concentrations of FGF23¹⁸⁰⁻²⁵¹ (0-400 nM) were mixed with a fixed concentration of 1:1 complex of the ectodomains of FGFR1c and Klotho (10 nM, 15 nM and 20 nM, respectively) in HBS-EP buffer, and the mixtures were passed over the chip. As a control, competition of FGF23 in solution with immobilized FGF23 for binding to the binary FGFR1c-Klotho complex was studied. […]

Assay [3] has as its target T2, 1:1 binary complex of the ectodomains …. Nature of the assay: SPR competition; competitor FGF23^28-251 immobilized, fixed FGFR1c-Klotho complex. The protocol:
Increasing concentrations of FGF23²⁸⁻²⁵¹ (0-50 nM) were mixed with a fixed concentration of 1:1 complex of the ectodomains of FGFR1c and Klotho (15 nM and 20 nM, respectively) in HBS-EP buffer, and the mixtures were passed over the FGF23 chip. In the other—reverse—assay, FGF23¹⁸⁰⁻²⁵¹ was immobilized on a chip (˜48.4 fmole/mm² of flow channel). Increasing concentrations of FGF23²⁸⁻²⁵¹ (0-50 nM) were mixed with a fixed concentration of 1:1 complex of the ectodomains of FGFR1c and Klotho (20 nM) in HBS-EP buffer, and the mixtures were passed over the chip. As a control, competition of FGF23 C-terminal tail peptide in solution with immobilized FGF23 C-terminal tail peptide for binding to the binary FGFR1c-Klotho complex was studied. Increasing concentrations of FGF23¹⁸⁰⁻²⁵¹ (0-400 nM) were mixed with a fixed concentration of 1:1 complex of the ectodomains of FGFR1c and Klotho (20 nM) in HBS-EP buffer, and the mixtures were passed over the FGF23¹⁸⁰⁻²⁵¹ chip.
To fully nail down that the C-terminal tail of FGF23 mediates FGF23 binding to the binary FGFR1c-Klotho complex, a fixed concentration of FGFR1c-Klotho was mixed with increasing concentrations of FGF23¹⁸⁰⁻²⁵¹, and the mixtures were passed over the FGF23 chip. Mixtures of FGF23²⁸⁻²⁵¹ with FGFR1c-Klotho were used as a control. […] Similar results were obtained using the “reverse” SPR assay format, where FGF23¹⁸⁰⁻²⁵¹ was immobilized on a chip and mixtures of a fixed concentration of FGFR1c-Klotho complex with increasing concentrations of FGF23²⁸⁻²⁵¹ were passed over the chip (FIG. 3E). Mixtures of FGF23¹⁸⁰⁻²⁵¹ with FGFR1c-Klotho were used as a control (FIG. 3F). To verify the specificity of the interaction between the FGF23 C-terminal tail and the FGFR1c-Klotho complex, the C-terminal tail peptide of FGF21 and FGFR1c-Klotho were mixed at molar ratios of 6:1 and 10:1, and the mixtures were injected over a FGF23 chip.

B1: ligand-binding domain of human FGFR1c (D142 to R365) (receptor)
chain: T2 sequence 1
notes: Expressed in E. coli; also called FGFR1c ectodomain
As to B1, the affinity in assay [1], expressed as Kd, was 72 nM.

B2: human FGF23 (A28 to I251), FGF23^28-251, with R176Q and R179Q (ligand)
chain: ASPLLGSSWGGLIHLYTATARNSYHLQIHKNGHVDGAPHQTIYSALMIRSEDAGFVVITGVMSRRYLCMDFRGNIFGSHYFDPENCRFQHQTLENGYDVYHSPQYHFLVSLGRAKRAFLPGMNPPPYSQFLSRRNEIPLIHFNTPIPRQHTQSAEDDSERDPLNVLKPRARMTPAPASCSQELPSAEDNSPMASDPLGVVRGGRVNTHAGGTGPEGCRPFAKFI
notes: also called full-length FGF23
On to B2, for which the “IC50 (read off the curve)” value in assay [2] is roughly 20 nM. For the same molecule, the “molar amount relative to FGFR1c-Klotho complex at 50% inhibition” value in assay [3] is less than 1 fold molar amount.
